{"source": "paper PMC7861488", "assay_in_all_cases": "graphene FET", "key": {"TNF-alpha [1]": {"molecular_target": "T1, TNF-alpha (UniProt P01375 77-233)", "T1 sequence (P01375 77-233)": "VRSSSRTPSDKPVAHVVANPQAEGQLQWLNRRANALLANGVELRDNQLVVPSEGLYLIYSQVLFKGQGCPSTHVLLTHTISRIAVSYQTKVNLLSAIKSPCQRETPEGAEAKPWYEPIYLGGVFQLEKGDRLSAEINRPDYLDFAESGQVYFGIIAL"}, "TNF-alpha [2]": {"molecular_target": "T1, TNF-alpha", "remark": "listed apart in the source"}, "TNF-alpha [3]": {"molecular_target": "T1, TNF-alpha", "remark": "listed apart in the source"}, "TNF-alpha [4]": {"molecular_target": "T1, TNF-alpha", "remark": "listed apart in the source"}, "TNF-alpha [5]": {"molecular_target": "T1, TNF-alpha", "remark": "listed apart in the source"}, "TNF-alpha [6]": {"molecular_target": "T1, TNF-alpha", "remark": "listed apart in the source"}, "TNF-alpha [7]": {"molecular_target": "T1, TNF-alpha", "remark": "listed apart in the source"}, "TNF-alpha [8]": {"molecular_target": "T1, TNF-alpha", "remark": "listed apart in the source"}, "TNF-alpha [9]": {"molecular_target": "T1, TNF-alpha", "remark": "listed apart in the source"}}, "note": "Where two headings read alike, the source gives them in different places.", "data": [{"binder": "TGGTGGATGGCGCAGTCGGCGACAA (ssDNA, 5'-NH2 (coupled to PASE on graphene))", "note": "[VR11]", "values": [{"measurement": "Kd", "setting": "TNF-alpha [1]", "value": 15.1, "unit": "nM"}, {"measurement": "Kd", "setting": "TNF-alpha [2]", "value": 15.1, "unit": "nM"}, {"measurement": "Kd", "setting": "TNF-alpha [3]", "value": 15, "unit": "nM"}, {"measurement": "Kd", "setting": "TNF-alpha [4]", "value": 15.6, "unit": "nM"}, {"measurement": "Kd", "setting": "TNF-alpha [5]", "value": 14.2, "unit": "nM"}, {"measurement": "Kd", "setting": "TNF-alpha [6]", "value": 14.2, "unit": "nM"}, {"measurement": "Kd", "setting": "TNF-alpha [7]", "value": 15.5, "unit": "nM"}, {"measurement": "Kd", "setting": "TNF-alpha [8]", "value": 14.7, "unit": "nM"}, {"measurement": "Kd", "setting": "TNF-alpha [9]", "value": 14.3, "unit": "nM"}]}]}
